Among the data in patent US20170165339A1 are peptide exchange yield values, retold here.

For this experiment, the target named is HLA-A*24 (human). Put plainly: UV peptide-exchange ELISA, yield grade.
In turn, VFTRVSSFL [… (SEQ ID NO: 162)] returned a peptide exchange yield of 50 to 75%.

Turning to QYLGQIQHI [… (SEQ ID NO: 268)], the peptide exchange yield was 50 to 75%.

On to YYVESGKLF [… (SEQ ID NO: 166)], for which the peptide exchange yield was more than 75%.

Molecule KFSSFSLFF [… (SEQ ID NO: 164)] came in with a peptide exchange yield of 50 to 75%.

In the case of YYKSTSSAF [… (SEQ ID NO: 218)], the peptide exchange yield lay in the range of 50 to 75%.

Consider RYAEEVGIF [… (SEQ ID NO: 199)], for which the peptide exchange yield lay in the range of 50 to 75%.

Molecule YYGPSLFLL [… (SEQ ID NO: 200)] gave a peptide exchange yield of 50 to 75%.

In turn, LYNKGFIYL [… (SEQ ID NO: 159)] returned a peptide exchange yield of more than 75%.

Take TYGDAGLTYTF [… (SEQ ID NO: 283)]: the peptide exchange yield fell in the range of 50 to 75%.

For HYSQELSLLYL [… (SEQ ID NO: 158)], the peptide exchange yield was more than 75%.

In turn, VYVSDIQEL [… (SEQ ID NO: 288)] displayed a peptide exchange yield of 50 to 75%.

As to RYLNKAFHI [… (SEQ ID NO: 284)], the peptide exchange yield lay within 50 to 75%.

On to KYPVEWAKF [… (SEQ ID NO: 289)], for which the peptide exchange yield was more than 75%.

IYLVSIPEL [… (SEQ ID NO: 161)]: the peptide exchange yield is more than 75%.

The molecule EYNQWFTKL [… (SEQ ID NO: 176)] yielded a peptide exchange yield of 50 to 75%.

Regarding TYSVSFPMF [… (SEQ ID NO: 195)], the peptide exchange yield is more than 75%.

The molecule PYRLIFEKF [… (SEQ ID NO: 281)] gave a peptide exchange yield of 20 to 49%.

VYEDQVGKF [… (SEQ ID NO: 170)] gave a peptide exchange yield of 20 to 49%.

In the case of YFIDSTNLKTHF [… (SEQ ID NO: 269)], the peptide exchange yield fell in the range of 50 to 75%.

YYEVHKELF [… (SEQ ID NO: 175)] gave a peptide exchange yield of more than 75%.

EYSLFPGQVVI [… (SEQ ID NO: 197)] gave a peptide exchange yield of 50 to 75%.

LFIPSSKLLFL [… (SEQ ID NO: 171)]: the peptide exchange yield lay within 50 to 75%.

In the case of IYATEAHVF [… (SEQ ID NO: 201)], the peptide exchange yield fell in the range of 50 to 75%.

Turning to NYYEVHKELF [… (SEQ ID NO: 270)], the peptide exchange yield was in the range of 50 to 75%.

For the molecule NYINRILKL [… (SEQ ID NO: 167)], the peptide exchange yield was more than 75%.

KYQDILETI [… (SEQ ID NO: 168)] came in with a peptide exchange yield of more than 75%.

AYVVFVSTL [… (SEQ ID NO: 207)] displayed a peptide exchange yield of 20 to 49%.

The molecule TFSVSSHLF [… (SEQ ID NO: 222)] had a peptide exchange yield of 50 to 75%.

For VYVGGGQIIHL [… (SEQ ID NO: 174)], the peptide exchange yield was 50 to 75%.

With AYTLIAPNI [… (SEQ ID NO: 169)], the peptide exchange yield was in the range of 50 to 75%.

The molecule TYELRYFQI [… (SEQ ID NO: 204)] registered a peptide exchange yield of more than 75%.

HYPPVQVLF [… (SEQ ID NO: 285)]: the peptide exchange yield was in the range of 50 to 75%.

TYKDEGNDYF [… (SEQ ID NO: 209)]: the peptide exchange yield was 50 to 75%.

Turning to VYTLDIPVL [… (SEQ ID NO: 160)], the peptide exchange yield was more than 75%.

Molecule LYIDRPLPYL [… (SEQ ID NO: 196)] gave a peptide exchange yield of 50 to 75%.

In turn, VYWDSAGAAHF [… (SEQ ID NO: 202)] registered a peptide exchange yield of more than 75%.

For DYLKGLASF [… (SEQ ID NO: 163)], the peptide exchange yield was more than 75%.

On to VYQGHTALL [… (SEQ ID NO: 277)], for which the peptide exchange yield is more than 75%.

For RYPDNLKHL [… (SEQ ID NO: 286)], the peptide exchange yield was in the range of 20 to 49%.

In turn, DYTTWTALL [… (SEQ ID NO: 165)] had a peptide exchange yield of more than 75%.

Consider IYSWILDHF [… (SEQ ID NO: 173)], for which the peptide exchange yield was more than 75%.

As for LYITEPKTI [… (SEQ ID NO: 287)], the peptide exchange yield was in the range of 50 to 75%.
